Assay results from paper PMC4853233.

Test: anti-FLAG western blot, 293T cells
Details: glycan lost; control: WT-TWSG1 adenovirus

B1: twisted gastrulation (TWSG1): N80Q/N146Q (protein)
parent chain: MKSHYIVLALASLTFLLCLPVSQSCNKALCASDVSKCLIQELCQCRPGEGNCPCCKECMLCLGALWDECCDCVGMCNPRNYSDTPPTSKSTVEELHEPIPSLFRALTEGDTQLNWNIVSFPVAEELSHHENLVSFLETVNQLHHQNVSVPSNNVHAPFPSDKERMCTVVYFDDCMSIHQCKISCESMGASKYRWFHNACCECIGPECIDYGSKTVKCMNCMF
With B1 the expression_or_secretion was “no change”.
